The assay has as its target CD28 (UniProt P10747). The experiment in a line: cell-based or functional assay.
Chain of UniProt P10747 (P10747 19-220 limits assumed): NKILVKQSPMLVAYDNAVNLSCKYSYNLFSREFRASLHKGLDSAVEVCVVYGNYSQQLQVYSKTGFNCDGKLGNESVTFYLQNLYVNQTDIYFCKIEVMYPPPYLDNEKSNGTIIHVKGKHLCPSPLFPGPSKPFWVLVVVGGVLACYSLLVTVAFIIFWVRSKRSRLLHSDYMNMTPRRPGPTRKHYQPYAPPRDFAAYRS

The substance anti-CD28 antibody 9.3 yielded an expression of other activation antigens on CD4+ T cells, suboptimal OKT3, plate-bound antibody costimulation of 4 to 100 fold.

The record behind these values is US7259247.
